Assay results reported in publication PMC12700558, “Aggregation shifts amyloid-β peptides from synaptogenic to synaptotoxic” (The Journal of Clinical Investigation, 2025).

Assays:
[1] = tested on: human neurons cocultured with mouse glia; settings: chronic exposure DIV6-DIV45, neurotoxic doses
Description: The Incucyte Cytotox Green assay, finally, monitors membrane integrity using a DNA dye that gains access to nuclei only when the plasma membrane is compromised (Supplemental Figure 1, F and G).
To obtain a live cell read out of neuronal death, we monitored loss of plasma-membrane integrity with Incucyte Cytotox Green reagent (Sartorius), a cell-impermeant DNA dye that fluoresces upon binding to nuclear DNA once the membrane is breached ([48]). A 250× stock supplied by the manufacturer was thawed on ice and diluted into prewarmed culture medium to a final working concentration of 250 nM immediately before use. For each assay plate, half the medium was removed and replaced with dye-containing medium so that the final dye concentration and vehicle composition were identical across all conditions. For validation, DIV30 cocultures were challenged for 4 hours with 200 μM H2O2; fluorescence images were acquired immediately thereafter. […] Dye was present for 2 hours before imaging to allow equilibrium without inducing additional stress. Ten nonoverlapping fields per well were captured with the 20× objective using green fluorescence channels. Exposure settings were kept constant within an experiment. Images were processed with ImageJ. A top-hat background subtraction was applied to the green channel, and a fluorescence threshold was kept constant across batches. […]

[2] = tested on: human neurons cocultured with mouse glia; assay: Quantification of 6E10-positive Aβ aggregates in human neuron cultures; format: cell-based; settings: for Density of 6E10-positive structures (number of structures per area of field of view) / Size of 6E10-positive structures (area fraction of the field of view occupied by aggregates): human neurons/mouse glia, DIV25
Description: Mature human iN cells were washed 3 times with PBS (Gibco) and fixed with 4% PFA (Electron Microscopy Science) and 4% sucrose (Sigma-Aldrich) in PBS for 10 minutes at room temperature. Cells were then washed three times with PBS, followed by permeabilization and blocking with 0.25% Triton-X-100 (Sigma-Aldrich), 2.5% bovine serum albumin (BSA) (GeminiBio) and 2,5% NGS (Sigma-Aldrich) for one hour at room temperature. Incubation with primary antibodies was performed overnight at 4°C in the corresponding blocking buffer ([41]). For endosome analyses, fixing solution contained only 4% PFA and the permeabilization was performed separately before the blocking step, using 0.1% Triton-X-100. Primary Antibodies used include rabbit monoclonal anti-Synapsin-1 (Yenzym antibodies, clone YZ6078, 1:1000 dilution), mouse monoclonal anti-PSD95 (Thermo Fisher Scientific, 7E3-1B8, 1:250 dilution), chicken polyclonal anti-MAP2 (EnCor, CPCA-MAP2, 1:1000 dilution), mouse monoclonal 6E10 (BioLegend, SIG-39320, 1:1000), rabbit monoclonal anti-Synaptophysin (homemade, P580 ([26])), and rabbit monoclonal anti-EEA1(Cell Signaling, C45B10, 1:1000 dilution). Cells were washed 3 times with PBS and incubated for 1 hour at room temperature with Alexa conjugated secondary antibodies: goat anti-chicken Alexa 647, goat anti-rabbit Alexa 546, goat anti-rabbit Alexa 488, and goat anti-mouse Alexa 488, all 1:500. Coverslips were washed once with PBS and once with water to remove salts before mounting, then were mounted using Fluoromount (with DAPI) (Thermo Fisher Scientific, 00-4959-52) on glass slides. All images were taken with the Nikon A1RSi confocal microscope (Nikon Instruments Inc.) for analysis of synaptic puncta using Nikon Analysis Software.
To quantify the density and size of 6E10-immunopositive aggregates, we acquired high-resolution confocal images at 60x magnification using a Nikon Eclipse Ti microscope (Nikon, Japan). All fluorescence parameters, including laser power and detector settings, were held constant throughout image acquisition to ensure comparability across samples. We then processed and analyzed the resulting images with Nikon Analysis Software, employing standardized thresholds for object detection. For analyses conducted in human neurons, the density of 6E10-positive aggregates was determined by calculating the number of discrete objects per unit area of the imaged field. In contrast, for analyses in primary neurons, we recorded the total number of discrete objects within each field. In both cases, we measured particle size as the fraction of the total field occupied by 6E10-positive signals, using a binary region of interest encompassing the entire field of view. This approach allowed for consistent, unbiased quantification of both the distribution and relative size of immunofluorescent aggregates under different experimental conditions.

[3] = 0.1uM chronic, biological replicate 1
[4] = 0.1uM chronic, biological replicate 2
[5] = 0.1uM chronic, biological replicate 3
[6] = 0.2uM chronic, biological replicate 1
[7] = 0.2uM chronic, biological replicate 2
[8] = 0.2uM chronic, biological replicate 3

## -.DAEFRHDSGYEVHHQKLVFFAGDVGSNKGAIIGLMVGGVVI.A [Aβ42^arctic]
[1]
  Incucyte Cytotox Green assay, labeled nuclei (in words): modest but consistent rise in labeled nuclei
[2]; [3]
  Density of 6E10-positive structures (number of structures per area of field of view): 0.009289
  Size of 6E10-positive structures (area fraction of the field of view occupied by aggregates): 0.02043
[2]; [4]
  Density of 6E10-positive structures (number of structures per area of field of view): 0.01336
  Size of 6E10-positive structures (area fraction of the field of view occupied by aggregates): 0.034
[2]; [5]
  Density of 6E10-positive structures (number of structures per area of field of view): 0.01613
  Size of 6E10-positive structures (area fraction of the field of view occupied by aggregates): 0.04071
[2]; [6]
  Density of 6E10-positive structures (number of structures per area of field of view): 0.03615
  Size of 6E10-positive structures (area fraction of the field of view occupied by aggregates): 0.05614
[2]; [7]
  Density of 6E10-positive structures (number of structures per area of field of view): 0.04641
  Size of 6E10-positive structures (area fraction of the field of view occupied by aggregates): 0.04714
[2]; [8]
  Density of 6E10-positive structures (number of structures per area of field of view): 0.06233
  Size of 6E10-positive structures (area fraction of the field of view occupied by aggregates): 0.04014
[2]; chronic exposure, immunofluorescence with 6E10 antibody
  6E10-positive Aβ aggregates in treated human neurons (in words): significant 6E10-positive Aβ aggregates
